The test system of one series is actin. Particulars: Shu et al.; cited from earlier work.
In series [1] the test system is DNA in the presence of rabbit skeletal actin. As to the kind of experiment: Influence of actin polymerisation on DNAse activity: decrease in viscosity of DNA/actin solutions. In kind it is biochemical. As for the experimental part: The viscosity of DNA and DNA/actin solutions was measured with a calibrated capillary viscosimeter (Schott Geräte, Hofheim, Germany) equipped with an automated apparatus (Lauda, Köningshofen, Germany). The capillary viscosimeter was placed in a water bath (20.00° C.±0.05° C.) and the outflow times (t in s) were determined automatically. The viscosity (η) of the solutions is related to t by: […] Biol. Chem. (1971) 246: 4866-4871) (6,4 μg/ml […], 1.5 mg DNA/ml and 1.1 mg actin/ml 70 mM NaCl, 3 mM CaCl2, 0.35 mM ATP, 3.2 mM TRIS/HCl, 0.13 mM DTT, and 0.006% NaN3, pH 7,0). K^+ and Mg^2+ were supplied as K2HPO4 and MgCl2 respectively.

In series [2] the test system is DNA (salmon sperm DNA from Sigma). Briefly: Effect of K+ and Mg2+ on DNAse activity: decrease in viscosity of a standardised DNA digest (capillary viscosimeter). In kind it is biochemical. As for the experimental part: The viscosity of DNA and DNA/actin solutions was measured with a calibrated capillary viscosimeter (Schott Geräte, Hofheim, Germany) equipped with an automated apparatus (Lauda, Köningshofen, Germany). The capillary viscosimeter was placed in a water bath (20.00° C.±0.05° C.) and the outflow times (t in s) were determined automatically. The viscosity (η) of the solutions is related to t by: [formula] where k and B are known constants. The effect of Mg^2+ and K^+ ions on the activity of DNAse (measured as decrease in viscosity) was determined by changing the Mg^2+ and K^+ concentration in a standardised DNA digest. DNA (salmon sperm DNA from Sigma) was digested (10 μ[…], 2,3 mg/ml DNA, 70 mM NaCl, and 3 mM CaCl2, pH 7.0) in order to determine the change in viscosity of the DNA solution.

Where [3] appears, read: DNA/actin solution 1: K+ 14.0 mM, Mg2+ 0.90 mM.
Where [4] appears, read: DNA/actin solution 2: K+ 26.0 mM, Mg2+ 0.90 mM.
[5] abbreviates: DNA/actin solution 3: K+ 26.0 mM, Mg2+ 2.70 mM.

On to `O=P([O-])([O-])O.[K+].[K+]` [K+, potassium hydrogenophosphate], for which the “concentration giving maximal actin polymerisation” value in the series on actin was 200 mM.

On to `[Cl-].[Cl-].[Mg+2]` [Mg^2+, magnesium chloride], for which the “concentration giving maximal actin polymerisation” value in the series with actin is reported as 2 mM.

B1: rhDNAse I: Recombinant human DNAse I, commercially available under the trade name Pulmozyme, also designated dornase alpha (protein, UniProt P24855 23-282, looked up)
Deoxyribonuclease-1: LKIAAFNIQTFGETKMSNATLVSYIVQILSRYDIALVQEVRDSHLTAVGKLLDNLNQDAPDTYHYVVSEPLGRNSYKERYLFVYRPDQVSAVDSYYYDDGCEPCGNDTFNREPAIVRFFSRFTEVREFAIVPLHAAPGDAVAEIDALYDVYLDVQEKWGLEDVMLMGDFNAGCSYVRPSQWSSIRLWTSPTFQWLIPDSADTTATPTHCAYDRIVVAGMLLRGAVVPDSALPFNFQAAYGLSDQLAQAISDHYPVEVMLK
modifications: dornase alfa
notes: Recombinant human DNAse I, commercially available under the trade name Pulmozyme, also designated dornase alpha
As for B1, the “decrease in viscosity at t = 10 min” value in series [1] (setting [3]) is 32%; in series [1] (setting [5]) it was 58%. In addition, the “decrease in viscosity at t = 20 min” value in series [1] (setting [3]) stood at 34%; in series [1] (setting [5]), 59%. Also, the entries for the “decrease in viscosity at t = 30 min” value in series [1] (setting [3]), in series [1] (setting [4]) and in series [1] (setting [5]) were 40%, 46% and 61%, respectively. Besides, the “η at t = 20 min” value came to 9.4 mm2/s in series [1] (setting [3]) and 5.8 mm2/s in series [1] (setting [5]). The “η at t = 30 min” value in series [1] (setting [3]) turned out to be 8.6 mm2/s; in series [1] (setting [4]), 7.7 mm2/s; in series [1] (setting [5]), 5.5 mm2/s. In addition, the “η at t = 10 min” value in series [1] (DNA/actin solution 1: K+ 14.0 mM, Mg2+ 0.90 mM, η 14.3 at t = 0) amounted to 9.8 mm2/s; in series [1] (setting [5]), 6.1 mm2/s. The “DNAse activity in DNA/actin solutions” value in series [1] (at high levels of Mg^2+ and K^+) is on record as “highest”. Also, the “decrease in viscosity at t = 10 minutes” value was found to be 97% in series [2] (DNA solution 1: K+ 14.0 mM, Mg2+ 1.65 mM); 97% in series [2] (DNA solution 2: K+ 26.0 mM, Mg2+ 1.65 mM); 97% in series [2] (DNA solution 3: K+ 20.0 mM, Mg2+ 0.90 mM); 97% in series [2] (DNA solution 4: K+ 20.0 mM, Mg2+ 2.70 mM). The “η at t = 10 minutes” value in series [2] (DNA solution 1: K+ 14.0 mM, Mg2+ 1.65 mM, η 31.5 at t = 0) stood at 1.1 mm^2/s; in series [2] (DNA solution 2: K+ 26.0 mM, Mg2+ 1.65 mM, η 31.5 at t = 0) it was 1.1 mm^2/s; in series [2] (DNA solution 3: K+ 20.0 mM, Mg2+ 0.90 mM, η 33.9 at t = 0), 1.1 mm^2/s; in series [2] (DNA solution 4: K+ 20.0 mM, Mg2+ 2.70 mM, η 33.9 at t = 0) it was 1.1 mm^2/s. Moreover, in series [2] (all tested K+ and Mg2+ concentrations, value is near the viscosity of water), the “viscosity η of the DNA solution after digestion” value was about 1 mm^2/s.

The record behind these values is patent publication US7432308B2, “Therapeutic compositions for the treatment of a respiratory tract disease” (Universiteit Gent, priority 2001, dated 2008).
